Experimental findings from US20250313631A1 (HUMMINGBIRD BIOSCIENCE PTE, published 2025) are described below.

For assay [1], the target named is T1, recombinant human VISTA (His-tagged) (human, UniProt Q9H7M9 33-194).
T1 construct: bought soluble protein (Sino Biological); also called hVISTA; human VISTA polypeptide
The assay can be described thus: antigen-binding ELISA; HMBD-002 in F4, day 10 at 40°C. In general terms: In an ELISA, binding on a coated surface is turned into a signal by an enzyme label.

The target of assay [2] is T1, recombinant human VISTA (His-tagged). In words: antigen-binding ELISA; HMBD-002 in F9, day 10 at 40°C.
For assay [3] the target is unchanged. In words: antigen-binding ELISA; HMBD-002 in F9, day 30 at 40°C.
The target is the same in assay [4]. In words: antigen-binding ELISA; HMBD-002 in F10, day 20 at 40°C.
Assay [5] has the same target. In words: antigen-binding ELISA; reference standard run with the day 20 samples.

B1: V4-C26 hIgG4 (antibody)
heavy: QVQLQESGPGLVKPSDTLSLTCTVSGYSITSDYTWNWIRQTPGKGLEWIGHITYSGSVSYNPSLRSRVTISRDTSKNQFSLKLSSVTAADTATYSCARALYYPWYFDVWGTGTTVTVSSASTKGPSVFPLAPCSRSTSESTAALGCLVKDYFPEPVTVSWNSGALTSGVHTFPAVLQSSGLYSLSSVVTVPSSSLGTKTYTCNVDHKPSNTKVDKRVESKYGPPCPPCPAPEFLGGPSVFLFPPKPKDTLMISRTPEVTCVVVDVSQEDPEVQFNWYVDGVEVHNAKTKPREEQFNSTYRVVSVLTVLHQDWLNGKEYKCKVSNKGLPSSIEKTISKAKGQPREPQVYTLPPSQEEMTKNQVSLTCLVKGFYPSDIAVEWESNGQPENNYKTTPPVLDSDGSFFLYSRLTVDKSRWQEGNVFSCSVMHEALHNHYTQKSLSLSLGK
light: EIVLTQSPATLSLSPGERATLSCRASSSVGYIHWYQQKPGQAPRPIIYTTSNRATGIPARFSGSGSGTDNTLTISSLEPEDSAVYYCQQWSSYPPITFGGGTKLEVKRTVAAPSVFIFPPSDEQLKSGTASVVCLLNNFYPREAKVQWKVDNALQSGNSQESVTEQDSKDSTYSLSSTLTLSKADYEKHKVYACEVTHQGLSSPVTKSFNRGEC
notes: human IgG4 (S228P)/kappa format; also called HMBD-002; HMBD-002-V4C26
Consider B1, for which the EC50 came to 0.0325 nM in assay [1]; 0.0305 nM in assay [2]; 0.0237 nM in assay [3]; 0.0235 nM in assay [4]; 0.0355 nM in assay [5].

What is called EC50 is the concentration that produces a half-maximal response.
